Experimental data from PMC11044963, “Probing the CRL4^DCAF12 interactions with MAGEA3 and CCT5 di-Glu C-terminal degrons” (PNAS Nexus, 2024).

Experiments:
[1] = molecular target: FITC-labeled CCT5 C-terminal degron peptide (human); test: fluorescence polarisation; direct binding; protein titrated from 4 µM in two-fold steps against 20 nM FITC peptide; 20 mM Tris pH 7.5, 150 mM NaCl, 5% glycerol, 0.5 mM TCEP, 0.01% Triton; 45 min at room temperature
[2] = molecular target: FITC-labeled MAGEA3 C-terminal degron peptide; test: as above

Substance “DDB1–DCAF12–DDA1 complex (from UniProt Q5T6F0 1-453; Q5T6F0 1-453; Q9BW61 1-102)” has a Kd [1] of 130 nM and a Kd [2] of 60 nM.
